# Like-named read-outs stand apart in the source and are kept apart here.
# Columns and labels:
# C1q (human) [1] = target: C1q (human) (UniProt P02745); test: cell-based or functional assay
# C1q (human) [2] = target: C1q (human) (UniProt P02745); test: cell-based or functional assay; remark: listed apart in the source
# CD52 (human) [3] = target: CD52 (human) (UniProt P31358); test: QIFIKIT indirect immunofluorescence, flow cytometry, 10 µg/mL antibody, Wien 133 cells
# CD52 (human) [4] = target: CD52 (human) (UniProt P31358); test: QIFIKIT indirect immunofluorescence, flow cytometry, 10 µg/mL antibody, U-266B1 cells
# CD52 (human) [5] = target: CD52 (human) (UniProt P31358); test: QIFIKIT indirect immunofluorescence, flow cytometry, 10 µg/mL antibody, REH cells
# CD52 (human) [6] = target: CD52 (human) (UniProt P31358); test: QIFIKIT indirect immunofluorescence, flow cytometry, 10 µg/mL antibody, U-698-M cells
# CD52 (human) [7] = target: CD52 (human) (UniProt P31358); test: QIFIKIT indirect immunofluorescence, flow cytometry, 10 µg/mL antibody, Ramos cells
# CD52 (human) [8] = target: CD52 (human) (UniProt P31358); test: QIFIKIT indirect immunofluorescence, flow cytometry, 10 µg/mL antibody, Daudi cells
# CD52 (human) [9] = target: CD52 (human) (UniProt P31358); test: QIFIKIT indirect immunofluorescence, flow cytometry, 10 µg/mL antibody, Raji cells
# UniProt P02745, sequence (P02745 23-245 limits assumed, chain 1 of 3): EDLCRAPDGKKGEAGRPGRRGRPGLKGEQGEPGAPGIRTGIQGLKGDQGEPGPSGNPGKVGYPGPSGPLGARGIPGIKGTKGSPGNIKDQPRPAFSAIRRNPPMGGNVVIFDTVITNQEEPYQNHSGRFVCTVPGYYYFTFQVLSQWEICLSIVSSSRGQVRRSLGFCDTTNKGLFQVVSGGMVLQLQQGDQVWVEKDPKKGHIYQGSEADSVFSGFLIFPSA
# UniProt P02745, sequence (P02746 28-253 limits assumed, chain 2 of 3, further chain): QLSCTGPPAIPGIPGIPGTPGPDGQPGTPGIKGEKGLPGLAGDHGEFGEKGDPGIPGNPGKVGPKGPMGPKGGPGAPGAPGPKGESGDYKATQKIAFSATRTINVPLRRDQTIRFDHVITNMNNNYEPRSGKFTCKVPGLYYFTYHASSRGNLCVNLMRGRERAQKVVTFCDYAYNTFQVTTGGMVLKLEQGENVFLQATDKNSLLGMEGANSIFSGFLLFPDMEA
# UniProt P02745, sequence (P02747 29-245 limits assumed, chain 3 of 3, further chain): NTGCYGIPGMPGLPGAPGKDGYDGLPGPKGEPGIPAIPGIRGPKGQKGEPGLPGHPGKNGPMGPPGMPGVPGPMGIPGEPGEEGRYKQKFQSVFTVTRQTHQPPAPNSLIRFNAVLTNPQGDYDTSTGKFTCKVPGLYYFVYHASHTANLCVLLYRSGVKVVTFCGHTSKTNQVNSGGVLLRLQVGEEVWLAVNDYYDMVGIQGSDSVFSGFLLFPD
substance,measurement,setting,value
IgG1-005-AA-E345R (antibody),"CDC on Daudi cells, 20% NHS: EC50",C1q (human) [1],0.14 µg/mL
same,"CDC on Daudi cells, 20% NHS: maximal kill",C1q (human) [1],74.3%
IgG1-005-AA-E430G (antibody),"CDC on Daudi cells, 20% NHS: EC50",C1q (human) [1],0.06 µg/mL
IgG1-005-D270R/E430G (antibody),"CDC on Daudi cells, 20% NHS: EC50",C1q (human) [2],0.15 µg/mL
IgG1-005-E345R (antibody),"CDC on Daudi cells, 20% NHS: EC50",C1q (human) [1],0.01 µg/mL
IgG1-005-E430G (antibody),"CDC on Daudi cells, 20% NHS: EC50",C1q (human) [2],0.005 µg/mL
same,"CDC on Daudi cells, 20% NHS: EC50",C1q (human) [1],0.01 µg/mL
IgG1-Campath (antibody),antibody binding capacity (Molecules/cell) (molecules/cell),CD52 (human) [3],332000
same,antibody binding capacity (Molecules/cell) (molecules/cell),CD52 (human) [4],1.46e+06
same,antibody binding capacity (Molecules/cell) (molecules/cell),CD52 (human) [5],135000
same,antibody binding capacity (Molecules/cell) (molecules/cell),CD52 (human) [6],93700
same,antibody binding capacity (Molecules/cell) (molecules/cell),CD52 (human) [7],179000
same,antibody binding capacity (Molecules/cell) (molecules/cell),CD52 (human) [8],7280
same,antibody binding capacity (Molecules/cell) (molecules/cell),CD52 (human) [9],85500
IgG1-Campath variant E345R with the K322E mutation (antibody),"CDC on Wien 133 cells, 20% NHS: area under the dose response curve, IgG1-Campath = 100%",C1q (human) [2],60%
IgG1-Campath-E345K (antibody),"CDC on Wien 133 cells, 20% NHS: area under the dose response curve relative to IgG1-Campath",C1q (human) [2],2.4 fold
same,"CDC on Wien 133 cells, 20% NHS: area under the dose response curve, IgG1-Campath = 100%",C1q (human) [2],240%
